Measured values published in PMC5797828 (Cancer Science, 2017).

Target: T1, Human γ-catenin, MYC/DDK-Tag (recombinant) (human, UniProt P14923 1-745)
T1 sequence (looked up): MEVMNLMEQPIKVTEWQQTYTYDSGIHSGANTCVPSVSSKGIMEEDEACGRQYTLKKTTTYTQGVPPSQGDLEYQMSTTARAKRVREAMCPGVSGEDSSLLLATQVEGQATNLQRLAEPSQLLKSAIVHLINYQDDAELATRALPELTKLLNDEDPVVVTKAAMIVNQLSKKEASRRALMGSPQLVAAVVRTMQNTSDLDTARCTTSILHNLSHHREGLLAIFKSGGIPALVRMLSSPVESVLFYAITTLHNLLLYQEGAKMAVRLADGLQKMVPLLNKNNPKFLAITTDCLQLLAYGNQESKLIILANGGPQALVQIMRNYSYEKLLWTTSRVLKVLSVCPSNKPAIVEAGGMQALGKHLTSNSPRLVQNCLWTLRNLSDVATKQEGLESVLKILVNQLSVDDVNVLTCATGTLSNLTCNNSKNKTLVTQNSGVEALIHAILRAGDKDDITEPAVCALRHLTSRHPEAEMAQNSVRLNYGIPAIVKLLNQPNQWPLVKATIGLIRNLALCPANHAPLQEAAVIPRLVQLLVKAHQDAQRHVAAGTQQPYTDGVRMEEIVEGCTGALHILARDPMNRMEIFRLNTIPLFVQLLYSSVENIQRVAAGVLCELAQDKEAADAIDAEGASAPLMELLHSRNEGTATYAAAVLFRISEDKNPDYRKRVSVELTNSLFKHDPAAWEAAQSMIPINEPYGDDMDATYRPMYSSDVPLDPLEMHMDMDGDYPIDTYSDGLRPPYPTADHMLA
Experiment: SPR

- binding result: binds
B1: Human PRDM14, GST-Tag at N-terminus (GST-PRDM14) (natural protein, UniProt Q9GZV8 1-571, looked up)
chain: MALPRPSEAVPQDKVCYPPESSPQNLAAYYTPFPSYGHYRNSLATVEEDFQPFRQLEAAASAAPAMPPFPFRMAPPLLSPGLGLQREPLYDLPWYSKLPPWYPIPHVPREVPPFLSSSHEYAGASSEDLGHQIIGGDNESGPCCGPDTLIPPPPADASLLPEGLRTSQLLPCSPSKQSEDGPKPSNQEGKSPARFQFTEEDLHFVLYGVTPSLEHPASLHHAISGLLVPPDSSGSDSLPQTLDKDSLQLPEGLCLMQTVFGEVPHFGVFCSSFIAKGVRFGPFQGKVVNASEVKTYGDNSVMWEIFEDGHLSHFIDGKGGTGNWMSYVNCARFPKEQNLVAVQCQGHIFYESCKEIHQNQELLVWYGDCYEKFLDIPVSLQVTEPGKQPSGPSEESAEGYRCERCGKVFTYKYYRDKHLKYTPCVDKGDRKFPCSLCKRSFEKRDRLRIHILHVHEKHRPHKCSTCGKCFSQSSSLNKHMRVHSGDRPYQCVYCTKRFTASSILRTHIRQHSGEKPFKCKYCGKSFASHAAHDSHVRRSHKEDDGCSCSICGKIFSDQETFYSHMKFHEDY
